This experiment has as its target fusion protein containing the GS120 linker. The experiment can be described thus: FRET or BRET.

Consider V227A MBD2 peptide, for which the fold shift of the titration midpoint against the WT MBD2 peptide is 30 fold.

The record behind these values is paper doi:10.1101/577536.
